In patent WO2013139956A1 (dated 2013):
Ends that are not written are not given here. * marks the point of attachment. Biotin = O=C1N[C@H]2[C@H](CS[C@H]2CCCCC(=O)*)N1

T1: peptide … (SEQ ID NO:51), N-terminally biotinylated (human)
T1 sequence (peptide, N-terminally biotinylated): EISQEVRGDVFPSY

T2: peptide … (SEQ ID NO:74), N-terminally biotinylated (human)
T2 sequence (peptide, N-terminally biotinylated): EISQEVAGDVFPSY

T3: peptide … (SEQ ID NO:75), N-terminally biotinylated (human)
T3 sequence (peptide, N-terminally biotinylated): EISQEVRADVFPSY

T4: peptide … (SEQ ID NO:77), N-terminally biotinylated (human)
T4 sequence (peptide, N-terminally biotinylated): EISQEVAADVFPSY

T5: human lactadherin (human, UniProt Q08431 24-387)
T5 sequence (looked up): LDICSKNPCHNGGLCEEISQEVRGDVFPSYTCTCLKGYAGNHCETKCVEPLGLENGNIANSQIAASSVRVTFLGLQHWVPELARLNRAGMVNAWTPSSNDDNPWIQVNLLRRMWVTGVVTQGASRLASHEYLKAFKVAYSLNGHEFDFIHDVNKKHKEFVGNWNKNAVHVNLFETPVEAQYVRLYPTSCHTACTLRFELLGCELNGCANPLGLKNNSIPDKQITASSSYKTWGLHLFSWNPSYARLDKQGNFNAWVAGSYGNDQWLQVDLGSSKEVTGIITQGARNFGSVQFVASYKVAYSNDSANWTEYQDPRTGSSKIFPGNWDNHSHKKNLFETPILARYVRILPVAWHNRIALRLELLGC

T6: peptide EISQEVAADVFPSY (SEQ ID NO:77), N-terminally biotinylated (human)
T6 peptide: Biotin-EISQEVAADVFPSY

T7: peptide HNGGLCEEISQEVR (SEQ ID NO:82), N-terminally biotinylated (human)
T7 construct: Human lactadherin 14-mer with part of the RGD domain at the C-terminus
T7 peptide: Biotin-HNGGLCEEISQEVR

T8: peptide GDVFPSYTCTCLKG (SEQ ID NO:84), N-terminally biotinylated (human, cysteine pairing not given here)
T8 construct: Human lactadherin 14-mer with part of the RGD domain at the N-terminus
T8 peptide: Biotin-GDVFPSYTCTCLKG

T9: peptide CHNGGLCEEISQEV (SEQ ID NO:83), N-terminally biotinylated (human, cysteine pairing not given here)
T9 peptide: Biotin-CHNGGLCEEISQEV

T10: peptide EISQEVRADVFPSY (SEQ ID NO:75), N-terminally biotinylated (human)
T10 peptide: Biotin-EISQEVRADVFPSY

T11: peptide EISQEVRAAVFPSY (SEQ ID NO:78), N-terminally biotinylated (human)
T11 peptide: Biotin-EISQEVRAAVFPSY

T12: peptide VFPSYTCTCLKGYA (SEQ ID NO:86), N-terminally biotinylated (human, cysteine pairing not given here)
T12 peptide: Biotin-VFPSYTCTCLKGYA

T13: peptide EISQEVAAAVFPSY (SEQ ID NO:80), N-terminally biotinylated (human)
T13 peptide: Biotin-EISQEVAAAVFPSY

T14: peptide EISQEVAGDVFPSY (SEQ ID NO:74), N-terminally biotinylated (human)
T14 peptide: Biotin-EISQEVAGDVFPSY

T15: peptide NGGLCEEISQEVRG (SEQ ID NO:81), N-terminally biotinylated (human)
T15 construct: Human lactadherin 14-mer with part of the RGD domain at the C-terminus
T15 peptide: Biotin-NGGLCEEISQEVRG

T16: peptide DVFPSYTCTCLKGY (SEQ ID NO:85), N-terminally biotinylated (human, cysteine pairing not given here)
T16 construct: Human lactadherin 14-mer with part of the RGD domain at the N-terminus
T16 peptide: Biotin-DVFPSYTCTCLKGY

T17: peptide EISQEVAGAVFPSY (SEQ ID NO:79), N-terminally biotinylated (human)
T17 peptide: Biotin-EISQEVAGAVFPSY

T18: peptide EISQEVRGAVFPSY (SEQ ID NO:76), N-terminally biotinylated (human)
T18 peptide: Biotin-EISQEVRGAVFPSY

B1: anti-lactadherin antibody 215A9 (antibody, IgG1, V domains shown)
VH: QVSLKESGPGILQSSQTLSLTCSFSGFSLSTSGMGVSWIRQPSGKGLEWLAHIYWNDDKRYNPSLKSRLTISKDTSRDQVFLKITSVDTADTATYFCARRPRFYRDYDEGIDFWGQGTTLTVSS
VL: QAVVTQESALTTSPGETVTLTCRSSTGAVTTNNYANWVQEKPDHLFTGLIGGTNNRTPGVPARFSGSLIGDKAALTITGAQTEDEAIYFCALWYSNLWVFGGGTKLTVLG
notes: also called 2154A9; hybridoma 215A9
B2: anti-lactadherin antibody 346B6 (antibody, IgG1, V domains shown)
VH: EFQLQQSGPELVKPGASVRISCKASGYSFTDYNMNWVKQSDGKTLEWIGVINPDYGTTNNNQRFRGKATLTLDLSSSTAYMQLNSLTSEDSAVYYCARGGDYGAGYALDYWGQGTSVTVSS
VL: QIVLTQSPAIMSASPGEKVTMTCSASSSVSYMYWYQQKPGSSPRLLIYDTSNLASGVPVRFSGSGSGTSYSLTISRMEAEDAATYYCQQWSSYPPTFGAGTKLELKR
notes: VH identical to that of 311A7; also called hybridoma 346B6; LMBP 9490CB
B3: anti-lactadherin antibody 311A7 (antibody, IgG1, V domains shown)
VH: B2 VH
VL: QIVLTQSPAIMSASPGEKVTITCSASSSVSYMYWFQQKPGTSPKLWIYSTSNLASGVPARFSGSGSGTSYSLTISRMEAEDAATYYCQQRSSYPRTFGGGTKLEIKR
notes: also called murine 311A7; hybridoma 311A7
B4: anti-lactadherin antibody 399A12 (antibody, V domains shown)
VH: QVTLKESGPGVLQSSQTLSLTCSFSGFSLSTSGLGVIWIRQPSGAGLEWLAQIYWDDNKRYNPSLKSRLTISKDTSRNQVFLKITPVDTADTATYYCARRTFYDYDEGFYAMDYWGQGTSVTVSS
VL: DIQMTQTTSSLSASLGDRVTITCRASQDISNYLNWYQQKPDGTIKLLIYYASRLHSGVPSRFSGSGSGTDYSLTISNLEQEDIATYFCQQGNTLPLTFGAGTKLELKR
notes: Murine monoclonal, kappa light chain; Variable regions identical to those of 416H9; also called hybridoma 399A12; LMBP 9491CB
B5: anti-lactadherin antibody 416H9 (antibody, IgG1, V domains shown)
VH: B4 VH
VL: B4 VL
notes: also called hybridoma 416H9; LMBP 9492CB
B6: huMc3 antibody (antibody, V domains shown)
VH: EVQLVQSGAEVKKPGASVKVSCKASGYSFTGYTMHWVKQSPGMNLEWIGLINPYNGGTVYNQKFQDKATLTVDKSTSTAYMELSSLRSEDTAVYFCARRWRYTMDYWGQGTLVTVSS
VL: DIVMTQSPDSLAVSLGERATITCKASQDVSIGVAWYQQKPGQSPKLLIYSASSRYTGVPDRFSGSGSGTDFTLTISSLQAEDVAVYYCQQHYTSPFTFGSGTKVEIK
B7: chimeric 311A7 antibody (antibody, V domains shown)
VH: B2 VH
VL: B3 VL

target: T1, peptide … (SEQ ID NO:51), N-terminally biotinylated (human); assay: ELISA, biotin-peptide on neutravidin plate, antibody 1 ug/ml

Row | Binder | absorbance 450 nm minus 540 nm [absorbance]
1 | B1 | 1.1
2 | B2 | 1
3 | B3 | 1.47
4 | B4 | 1.62
5 | B5 | 1.76

target: T2, peptide … (SEQ ID NO:74), N-terminally biotinylated (human); assay: as above

Row | Binder | absorbance 450 nm minus 540 nm [absorbance]
6 | B1 | 0.52
7 | B4 | 0.24
8 | B5 | 0.25

target: T3, peptide … (SEQ ID NO:75), N-terminally biotinylated (human); assay: as above

Row | Binder | absorbance 450 nm minus 540 nm [absorbance]
9 | B1 | 0.74
10 | B4 | 0.69
11 | B5 | 0.7

target: T4, peptide … (SEQ ID NO:77), N-terminally biotinylated (human); assay: as above

Row | Binder | absorbance 450 nm minus 540 nm [absorbance]
12 | B1 | 0.23
13 | B4 | 0.2
14 | B5 | 0.19

target: T5, human lactadherin; assay: cell-based or functional assay

Row | Binder | inhibition of SKOV-3 cell adhesion to coated human lactadherin, antibody at 5 ug/mL [%] | IC50 (nM), inhibition of cell adhesion to human lactadherin [nM] | decrease of SKOV-3 cell migration towards lactadherin, antibody at 5 ug/mL [%]
15 | B1 | > 70 | – | –
16 | B2 | 25 | – | –
17 | B3 | > 70 | 7.36 | > 80
18 | B4 | > 70 | – | > 80
19 | B5 | > 70 | – | > 80
20 | B6 | > 70 | 6.48 | –
21 | B7 | – | 7.36 | –

Target: T6, peptide EISQEVAADVFPSY (SEQ ID NO:77), …
Assay: ELISA, biotin-peptide on neutravidin plate, antibody 1 ug/ml

Row | Binder | absorbance 450 nm minus 540 nm [absorbance]
22 | B2 | 0.01
23 | B3 | 0.01
24 | B6 | 0.05

Target: T7, peptide HNGGLCEEISQEVR (SEQ ID NO:82), …
Assay: as above

Row | Binder | absorbance 450 nm minus 540 nm [absorbance]
25 | B1 | 0.03
26 | B2 | 0.02
27 | B3 | 0.02
28 | B4 | 0.02
29 | B5 | 0.03
30 | B6 | 0.08

Target: T8, peptide GDVFPSYTCTCLKG (SEQ ID NO:84), …
Assay: as above

Row | Binder | absorbance 450 nm minus 540 nm [absorbance]
31 | B1 | 0.04
32 | B2 | 0.02
33 | B3 | 0.02
34 | B4 | 0.03
35 | B5 | 0.03
36 | B6 | 0.08

Target: T9, peptide CHNGGLCEEISQEV (SEQ ID NO:83), …
Assay: as above

Row | Binder | absorbance 450 nm minus 540 nm [absorbance]
37 | B1 | 0.03
38 | B2 | 0.02
39 | B3 | 0.02
40 | B4 | 0.02
41 | B5 | 0.03
42 | B6 | 0.09

Target: T10, peptide EISQEVRADVFPSY (SEQ ID NO:75), …
Assay: as above

Row | Binder | absorbance 450 nm minus 540 nm [absorbance]
43 | B2 | 0.01
44 | B3 | 0.01
45 | B6 | 0.03

Target: T11, peptide EISQEVRAAVFPSY (SEQ ID NO:78), …
Assay: as above

Row | Binder | absorbance 450 nm minus 540 nm [absorbance]
46 | B1 | 0.02
47 | B2 | 0.02
48 | B3 | 0.02
49 | B4 | 0.02
50 | B5 | 0.02
51 | B6 | 0.06

Target: T12, peptide VFPSYTCTCLKGYA (SEQ ID NO:86), …
Assay: as above

Row | Binder | absorbance 450 nm minus 540 nm [absorbance]
52 | B1 | 0.05
53 | B2 | 0.03
54 | B3 | 0.02
55 | B4 | 0.03
56 | B5 | 0.03
57 | B6 | 0.07

Target: T13, peptide EISQEVAAAVFPSY (SEQ ID NO:80), …
Assay: as above

Row | Binder | absorbance 450 nm minus 540 nm [absorbance]
58 | B1 | 0.02
59 | B2 | 0.01
60 | B3 | 0.02
61 | B4 | 0.02
62 | B5 | 0.02
63 | B6 | 0.04

Target: T14, peptide EISQEVAGDVFPSY (SEQ ID NO:74), …
Assay: as above

Row | Binder | absorbance 450 nm minus 540 nm [absorbance]
64 | B2 | 0.02
65 | B3 | 0.02
66 | B6 | 0.04

Target: T15, peptide NGGLCEEISQEVRG (SEQ ID NO:81), …
Assay: as above

Row | Binder | absorbance 450 nm minus 540 nm [absorbance]
67 | B1 | 0.03
68 | B2 | 0.02
69 | B3 | 0.01
70 | B4 | 0.03
71 | B5 | 0.02
72 | B6 | 0.09

Target: T16, peptide DVFPSYTCTCLKGY (SEQ ID NO:85), …
Assay: as above

Row | Binder | absorbance 450 nm minus 540 nm [absorbance]
73 | B1 | 0.04
74 | B2 | 0.03
75 | B3 | 0.02
76 | B4 | 0.04
77 | B5 | 0.03
78 | B6 | 0.09

Target: T17, peptide EISQEVAGAVFPSY (SEQ ID NO:79), …
Assay: as above

Row | Binder | absorbance 450 nm minus 540 nm [absorbance]
79 | B1 | 0.03
80 | B2 | 0.07
81 | B3 | 0.05
82 | B4 | 0.03
83 | B5 | 0.05
84 | B6 | 0.04

Target: T18, peptide EISQEVRGAVFPSY (SEQ ID NO:76), …
Assay: as above

Row | Binder | absorbance 450 nm minus 540 nm [absorbance]
85 | B1 | 0.1
86 | B2 | 0.02
87 | B3 | 0.01
88 | B4 | 0.03
89 | B5 | 0.02
90 | B6 | 0.06
